From patent US20180362643A1 (Amgen, published 2018)
Ends that are not written are not given here.

B1: mAb2 (antibody, V domains shown)
VH: QSLEESGGGLVQPEGSLTLTCTASGFSFNSSSYMCWVRQAPGKGLEWIGCIFTGSSGNTYYATWAQGRFTISKTSTTVTLEMTSLTAADTATYFCARDRAYFLVGYFYATYYFDLWGPGTLVTVSS
VL: DVVMTQTPSPVSAQVGGTVTINCQASESIDSDLSWYQQKPGQPPKLLIYRTFTLESGVPSRFKGSGSGTDYTLTISDLECADAAIYYCQCTDGSSISGSYGWDAFGGGTEVVVKG
notes: Rabbit monoclonal antibody (SLAM), recombinant; also called monoclonal anti-PACAP antibody 2; 2 (c81)
B2: mAb6 (antibody, V domains shown)
VH: QLEESGGGLVQPGASLTLTCTTSGFSLSDNYLCWVRQAPGRGLEWVACIGIVLRSTGATYYASWAEGRFTISKTSPTTVTLEMTSLTAADTATYFCALDLGYGGPLWGPGTLVTVSS
VL: AQVLTQTPASVSAAVGGTVTINCQASQSVYNNKNLAWYQQKPGQPPKLLIYFSSTLASGVPSRFRGSGSGTQFTLTISGVQCGDAATYYCLGEFGSIWAFGGGTEVVVKG
notes: Rabbit monoclonal antibody (SLAM), recombinant; also called monoclonal anti-PACAP antibody 6; 6 (c55)
B3: mAb5 (antibody, V domains shown)
VH: QSVEESGGRLVTPGTPLTLTCTVSGFSLSTYNMCWVRQAPGKGLEWVGFINSDDSAYYASWAKGRFTFSKTSTTVDLKIASPTTEDTATYFCARYDWDYYYSRLDLWGPGTLVTVSS
VL: DIVLTQTPASVSAAVGGTVSISCQSSESVYNNNYLSWFQQKPGQPPKLLIYGASTLASGVPSRFEGSGSGTQFTLTISDVQCDDAATYYCLGDYIIIENIFGGGTEVVVKG
notes: Rabbit monoclonal antibody (SLAM), recombinant; also called monoclonal anti-PACAP antibody 5; 5 (c71)

Experiments:
[1] = target: T1, full-length human PACAP38 (human, not fully specified); test: cell-based or functional assay
T1 peptide: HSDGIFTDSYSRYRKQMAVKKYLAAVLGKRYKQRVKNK

human PACAP27 = target: T2, human PACAP27 (human, not fully specified); test: cell-based or functional assay
T2 peptide: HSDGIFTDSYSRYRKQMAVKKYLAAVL

[2] = target: T3, PACAP38 peptide fragment 6-20 (human); test: SPR (Biacore 3000), solution competition with the peptide for antibody binding to immobilised full-length PACAP38; % inhibition
T3 construct: also called peptide No. 13
T3 peptide: FTDSYSRYRKQMAVK
Experimental: (§1) The binding epitopes of anti-PACAP antibodies were evaluated by using the Biacore 3000 biosensor-based instrument (GE Healthcare USA). The Biacore 3000 instrument utilizes surface plasmon resonance (SPR) technology to measure mass increase on the sensor-chip surface. The binding interactions are measured in real-time and recorded as Response Units (RU). Each binding profile (cycle) is stored in a “sensorgram” in real-time. Generally, Biacore technology entails immobilizing a ligand of interest on to a flow-cell of the sensor-chip via a coupling chemistry. The analyte (e.g. putative binding partner to the ligand of interest) is injected across the immobilized ligand allowing it to bind to the ligand-immobilized surface. The magnitude of the response is directly proportional to the mass increase on the immobilized surface due to the binding of the analyte.
(§2) In this experiment, various peptide fragments of PACAP38 were incubated with each of the six antibodies (mAb1, mAb2, mAb3, mAb4, mAb5, and mAb6) described in Example 2 and evaluated for their ability to inhibit binding of the antibodies to full-length PACAP38 immobilized on the sensor-chip. The binding epitopes for each of the antibodies were deduced from the set of peptides that were able to inhibit the binding of each antibody to full-length PACAP38.
(§3) Each of the six anti-PACAP antibodies was incubated at a 1:200 molar ratio (Ab: peptide fragment) with each of the peptide fragments in Table 9 at an ambient temperature for 2 hours prior to analysis. […] A second control containing 6.5 nM antibody was prepared in sample diluent to be used as the untreated control sample for each antibody. Full-length PACAP38, buffer, and each peptide fragment were also tested to evaluate non-specific binding to the immobilized PACAP38 surface.

[3] = target: T4, vasoactive intestinal peptide (VIP) (human); test: ELISA screen of B-cell culture supernatant
T4 construct: also called human VIP
T4 peptide: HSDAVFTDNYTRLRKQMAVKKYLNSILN

[4] = target: T1, full-length human PACAP38; test: ELISA screen of B-cell culture supernatant; full-length PACAP38 at 10 ng/mL
Excerpt: (§4) Rabbits were immunized with human PACAP38 peptide ([…]; SEQ ID NO: 1). Monoclonal antibodies were generated from the immunized rabbits using the Selected Lymphocyte Antibody Method (SLAM) as described in Babcook et al., Proc. Natl. Acad. Sci. USA, Vol. 93: 7843-7848, 1996. Briefly, B cells were harvested from spleens from the immunized rabbits and expanded in culture. The supernatant from the expanded B-cell cultures was initially screened for binding to an amino terminal PACAP38 peptide ([…]; SEQ ID NO: 5) and a carboxy terminal PACAP38 peptide ([…]; SEQ ID NO: 4) using an ELISA assay. From the initial screen, 2,935 N-terminal and/or C-terminal binders were identified. The affinity of these antibodies for full-length human PACAP38 (SEQ ID NO: 1) was assessed by ELISA assay.

[5] = target: T5, PACAP38 peptide fragment 6-37 (human); test: SPR (Biacore 3000), solution competition: antibody pre-incubated 2 h with the peptide at 1:200 molar ratio (Ab:peptide), then injected over immobilised full-length PACAP38; readout % inhibition of antibody binding (filing counts >50 % as reactive)
T5 construct: also called peptide No. 3
T5 peptide: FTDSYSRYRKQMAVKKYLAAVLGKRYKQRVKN
Experimental: as §1, §2, §3

[6] = target: T6, PACAP38 peptide fragment 6-38 (human, not fully specified); test: as above
T6 construct: also called peptide No. 11
T6 peptide: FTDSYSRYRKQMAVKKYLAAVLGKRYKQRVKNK
Experimental: as §1, §2, §3

[7] = target: T7, PACAP38 peptide fragment 14-38 (human, not fully specified); test: as above
T7 construct: also called peptide No. 7
T7 peptide: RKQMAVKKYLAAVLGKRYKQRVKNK
Experimental: as §1, §2, §3

[8] = target: T4, vasoactive intestinal peptide (VIP); test: ELISA screen of B-cell culture supernatant; VIP at 100 ng/mL
[9] = target: T8, carboxy terminal PACAP38 peptide (amino acids 28-38) (human, ends and bridges not checked); test: ELISA screen of B-cell culture supernatant; C-terminal peptide at 500 ng/mL
T8 construct: also called C-terminal Peptide; C-terminal PACAP peptide
T8 peptide: GKRYKQRVKNK
Excerpt: as §4

[10] = target: T9, amino terminal PACAP38 peptide (amino acids 1-13) (human); test: ELISA screen of B-cell culture supernatant; N-terminal peptide at 500 ng/mL; ELISA screen of B-cell culture supernatant (Example 1); N-terminal peptide 500 ng/mL; optical density
T9 construct: also called N-terminal Peptide; N-terminal PACAP peptide
T9 peptide: HSDGIFTDSYSRY
Excerpt: as §4

31-38 = target: T10, 31-38 (ends and bridges not checked); test: SPR (Biacore 3000), solution competition with the peptide for antibody binding to immobilised full-length PACAP38; % inhibition
T10 construct: also called PACAP38 peptide fragment 31-38; peptide No. 5
T10 peptide: YKQRVKNK
Experimental: as §1, §2, §3

30-37 = target: T11, 30-37; test: as above
T11 construct: also called PACAP38 peptide fragment 30-37; peptide No. 19
T11 peptide: RYKQRVKN
Experimental: as §1, §2, §3

[11] = target: T12, PACAP38 peptide fragment 34-38 (human, ends and bridges not checked); test: as above
T12 construct: also called peptide No. 17; RVKNK
T12 peptide: RVKNK
Experimental: as §1, §2, §3

[12] = target: T8, carboxy terminal PACAP38 peptide (amino …); test: ELISA screen of B-cell culture supernatant

Row | Binder | IC50: inhibition of PACAP38 (10 pM)-induced activation of human PAC1 receptor, cAMP assay in SH-SY5Y (CRL-2266) cells, POC versus antibody concentration [1] [nM] | IC50: inhibition of PACAP27 (10 pM)-induced activation of human PAC1 receptor, cAMP assay in SH-SY5Y (CRL-2266) cells, POC versus antibody concentration (human PACAP27) | binding result [2] | binding result [3] | Optical Density [4] [OD] | binding result [5] | binding result [6] | binding result [7] | Optical Density [8] [OD] | Optical Density [9] [OD] | Optical Density [10] [OD] | binding result (31-38) | binding result (30-37) | binding result [11] | binding result [12]
1 | B1 | 0.4 | > 1 uM | no binding (tested: 1:200 molar ratio (Ab:peptide)) | no binding (tested: 100 ng/mL) | 3.39 | binds | binds | binds | 0.09 | 3.74 |  |  |  |  | 
2 | B2 | 0.6 | 0.5 nM | no binding (tested: 1:200 molar ratio (Ab:peptide)) |  | 3.55 | binds | binds | binds | 0.95 | 0.05 | 4.24 | no binding (tested: 1:200 molar ratio (Ab:peptide)) | no binding (tested: 1:200 molar ratio (Ab:peptide)) | no binding (tested: 1:200 molar ratio (Ab:peptide)) | no binding (tested: 500 ng/mL)
3 | B3 | 1 | 26 nM | no binding (tested: 1:200 molar ratio (Ab:peptide)) | no binding (tested: 100 ng/mL) | 3.21 | binds | binds |  | 0.12 | 0.05 | 1.34 | no binding (tested: 1:200 molar ratio (Ab:peptide)) | no binding (tested: 1:200 molar ratio (Ab:peptide)) | no binding (tested: 1:200 molar ratio (Ab:peptide)) | no binding (tested: 500 ng/mL)
